Legend:
[1] = target: T1, EpCAM H90 Mask27 L040 (EpCAM targeting ProTriTAC with H90); assay: binding assay with kinetics, affinity summary (instrument not stated)
T1 construct: trispecific prodrug: masked anti-albumin sdAb-L040-anti-CD3 scFv-anti-EpCAM sdAb H90-His6

[2] = target: T2, EpCAM H90.2 Mask27 L040 (EpCAM targeting ProTriTAC with H90.2); assay: as above
T2 construct: trispecific prodrug; also called H90.2 ProTriTAC (L040)

[3] = target: T3, EpCAM H13 Mask27 L040 (EpCAM targeting ProTriTAC with H13); assay: binding assay, affinity summary
T3 construct: trispecific prodrug: masked anti-albumin sdAb-cleavable linker L040-anti-CD3 scFv-anti-EpCAM sdAb H13-His6; also called H13 ProTriTAC (L040)
T3 sequence (chain, as listed by the source): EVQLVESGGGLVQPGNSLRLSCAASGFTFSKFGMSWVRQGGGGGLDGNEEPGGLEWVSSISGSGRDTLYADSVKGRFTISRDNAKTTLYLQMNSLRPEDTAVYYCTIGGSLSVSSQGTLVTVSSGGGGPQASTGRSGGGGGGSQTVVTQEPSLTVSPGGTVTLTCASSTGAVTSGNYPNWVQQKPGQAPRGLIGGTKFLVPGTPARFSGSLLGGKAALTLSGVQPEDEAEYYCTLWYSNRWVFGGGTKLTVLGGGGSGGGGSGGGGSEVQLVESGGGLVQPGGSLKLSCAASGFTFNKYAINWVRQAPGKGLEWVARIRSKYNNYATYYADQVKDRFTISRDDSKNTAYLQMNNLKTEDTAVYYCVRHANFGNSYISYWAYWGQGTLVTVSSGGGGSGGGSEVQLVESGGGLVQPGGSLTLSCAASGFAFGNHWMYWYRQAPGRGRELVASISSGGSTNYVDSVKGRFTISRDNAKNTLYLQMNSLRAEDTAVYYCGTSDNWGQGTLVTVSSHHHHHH

T2 sequence (chain, as listed by the source): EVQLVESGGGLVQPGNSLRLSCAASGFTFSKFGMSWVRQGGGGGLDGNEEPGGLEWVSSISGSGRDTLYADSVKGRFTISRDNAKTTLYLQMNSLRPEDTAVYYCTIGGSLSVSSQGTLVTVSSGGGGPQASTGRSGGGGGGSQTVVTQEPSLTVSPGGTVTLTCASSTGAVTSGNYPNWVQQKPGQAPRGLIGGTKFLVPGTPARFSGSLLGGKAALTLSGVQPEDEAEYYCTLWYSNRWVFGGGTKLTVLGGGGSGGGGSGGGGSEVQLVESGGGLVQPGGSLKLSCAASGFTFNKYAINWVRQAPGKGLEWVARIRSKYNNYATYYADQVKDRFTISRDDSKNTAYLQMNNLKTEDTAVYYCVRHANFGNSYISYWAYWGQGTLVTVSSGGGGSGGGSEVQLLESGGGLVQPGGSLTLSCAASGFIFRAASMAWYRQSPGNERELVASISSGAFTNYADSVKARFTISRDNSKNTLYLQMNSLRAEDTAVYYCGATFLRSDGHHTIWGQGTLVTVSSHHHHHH
T1 sequence (chain, as listed by the source): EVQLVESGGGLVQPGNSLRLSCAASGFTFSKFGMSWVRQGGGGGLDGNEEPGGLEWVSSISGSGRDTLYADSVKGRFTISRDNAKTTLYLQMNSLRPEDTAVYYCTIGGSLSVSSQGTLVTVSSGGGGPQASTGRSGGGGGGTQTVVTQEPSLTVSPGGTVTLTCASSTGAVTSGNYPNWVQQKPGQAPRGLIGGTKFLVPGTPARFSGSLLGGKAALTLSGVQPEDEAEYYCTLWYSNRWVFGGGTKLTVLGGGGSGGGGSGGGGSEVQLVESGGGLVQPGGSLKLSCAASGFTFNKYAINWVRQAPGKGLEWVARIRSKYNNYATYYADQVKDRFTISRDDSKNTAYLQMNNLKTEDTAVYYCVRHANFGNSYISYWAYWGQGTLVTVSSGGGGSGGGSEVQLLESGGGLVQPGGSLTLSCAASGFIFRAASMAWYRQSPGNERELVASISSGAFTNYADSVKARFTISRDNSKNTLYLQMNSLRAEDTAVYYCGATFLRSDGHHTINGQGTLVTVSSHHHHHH

Kd [1]: 260 pM
Kd [2]: 150 pM
binding result [3]: no binding
B1: mouse EpCAM (other)
chain: QRDCVCDNYKLATSCSLNEYGECQCTSYGTQNTVICSKLASKCLAMKAEMTHSKSGRRIKPEGAIQNNDGLYDPDCDEQGLFKAKQCNGTATCWCVNTAGVRRTDKDTEITCSERVRTYWIIIELKHKERESPYDHQSLQTALQEAFTSRYKLNQKFIKNIMYENNVITIDLMQNSSQKTQDDVDIADVAYYFEKDVKGESLFHSSKSMDLRVNGEPLDLDPGQTLIYYVDEKAPEFSMQGLT
modifications: biotinylated
notes: also called muEpCAM (biotinylated version of mouse EpCAM antigen)

From patent US20240228656A1 (HARPOON THERAPEUTICS, published 2024)
